# Reference: US20240150489A1 (ICHNOS SCIENCES, published 2024)
# T1: cynomolgus CD47-ECD-Avi-His (cynomolgus monkey)
# T1 construct: also called recombinant cynomolgus monkey CD47-avi-his protein
# T1 chain: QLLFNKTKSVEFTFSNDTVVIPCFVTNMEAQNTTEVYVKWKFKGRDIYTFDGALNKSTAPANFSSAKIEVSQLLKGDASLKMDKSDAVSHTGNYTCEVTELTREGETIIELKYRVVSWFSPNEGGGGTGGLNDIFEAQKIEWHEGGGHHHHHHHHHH
# T2: Human FcyRIIA (human, UniProt P12318 34-208, limits assumed)
# T2 construct: also called FcγRIIa
# T2 chain: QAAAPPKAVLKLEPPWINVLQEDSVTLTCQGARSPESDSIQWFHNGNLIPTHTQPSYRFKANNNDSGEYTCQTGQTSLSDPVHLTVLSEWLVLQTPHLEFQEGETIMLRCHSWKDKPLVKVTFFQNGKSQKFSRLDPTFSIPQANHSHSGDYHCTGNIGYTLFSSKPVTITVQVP
# T3: Human FcyRIIB (human, UniProt P31994 46-217, limits assumed)
# T3 construct: also called FcγRIIb
# T3 sequence (looked up): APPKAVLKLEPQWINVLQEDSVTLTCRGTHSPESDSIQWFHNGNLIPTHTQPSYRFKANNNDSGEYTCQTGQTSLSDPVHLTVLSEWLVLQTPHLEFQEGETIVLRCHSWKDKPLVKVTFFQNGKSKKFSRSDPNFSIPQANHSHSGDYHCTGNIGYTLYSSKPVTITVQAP
# B1: Anti-CD38-UCP01-D1 Fab (Fab, V domains shown)
# VH: QVQLVQSGAEVKKPGSSVKVSCKASGGIFNGYLISWVRQAPGQGLEWMGGIIPVNGLADYAQKFQGRVTITADESTSTAYMELSSLRSEDTAVYYCARTIGRYIIAFDYWGQGTLVTVSS
# VL: not shown
# notes: human IgG1 Fab
# B2: anti-CD47-UCP01-H2 FAB (Fab, V domains shown)
# VH: EVQLVESGGGLIQPGGSLRLSCAASGFTLSRNTMHWVRQAPGKGLEWVSVIYQSGVTRYADSVKGRFTISRDNSKNTLYLQMNSLRAEDTAVYYCARGRYGVAGGPGYAFDVWGQGTLVTVSS
# VL: not shown
# notes: human IgG1 Fab; also called anti-CD47-H2; anti-CD47-H2 Fab
# B3: BEAT CD38/CD47-60 (bispecific antibody, human IgG1, kappa)
# heavy 1: EVQLVESGGGLIQPGGSLRLSCAASGFTLSRNTMHWVRQAPGKGLEWVSVIYQSGVTRYADSVKSRFTISRDNSKNTLYLQMNSLRAEDTAVYYCARGRYGVAGGPGYAFDVWGQGTLVTVSSASTKGPSVFPLAPSSKSTSGGTAALGCLVKDYFPEPVTVSWNSGALTSGVHTFPAVLQSSGLYSLSSVVTVPSSSLGTQTYICNVNHKPSNTKVDKKVEPKSCDKTHTCPPCPAPELLGGPDVFLFPPKPKDTLMISRTPEVTCVVVDVSHEDPEVKFNWYVDGVEVHNAKTKPREEQYNSTYRVVSVLTVLHQDWLNGKEYKCKVNNKALPAPEEKTISKAKGQPREPAVYTLPPSREEMTKNQVKLVCLVTGFYPSDIAVEWESSGQPENNYYTTPPMLDSDGSFSLVSWLNVDKSRWQQGNIFSCSVMHEALHNRFTQKSLSLSPG
# heavy 2: not shown
# light: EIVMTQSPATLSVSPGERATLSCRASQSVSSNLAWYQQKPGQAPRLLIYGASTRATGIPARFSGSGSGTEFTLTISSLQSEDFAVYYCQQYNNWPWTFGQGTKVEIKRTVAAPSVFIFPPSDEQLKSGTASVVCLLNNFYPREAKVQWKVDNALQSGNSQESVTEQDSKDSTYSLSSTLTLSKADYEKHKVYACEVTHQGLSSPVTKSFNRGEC
# notes: 2+1 biparatopic format; BEAT (A): S239D + I332E + S324N, BEAT (B): S324N; also called BEAT CD38/47-60; BEAT 38/47-60
# Columns and labels:
# [1] = biological target: T4, recombinant cynomolgus monkey CD38-ECD-C-his (cynomolgus monkey, UniProt Q5VAN0 45-301); assay: SPR, His-captured cyno CD38, Fab analyte; NB = no detectable binding
# T4 construct: Extracellular region fused to 6-His; also called cyno CD38-C-His; recombinant cynomolgus monkey CD38 protein
# [2] = biological target: T5, recombinant biotinylated human CD38 Avitag, His Tag (Acrobiosystems, CD8-H82E7) (human, UniProt P28907 43-300, biotinylated (Avitag)); assay: SPR, biotinylated CD38 captured, Fab analyte, 1:1 fit;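 also: biacore T200 at 25 °C, single-cycle kinetics with Fab injected at 7.8–2000 nM for 3 min, dissociation followed 5 min, reference flow path subtracted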
# T5 construct: Bought protein; also called biotinylated human CD38-avi-his protein; biotinylated recombinant human CD38 protein
# human CD47-ECD-Avi-His [3] = biological target: T6, human CD47-ECD-Avi-His (human); assay: SPR; human CD47; value given in the text of paragraph 230
# T6 construct: also called recombinant human CD47-avi-his protein; recombinant human CD47 protein
# [4] = biological target: T1, cynomolgus CD47-ECD-Avi-His; assay: SPR; cynomolgus monkey CD47; value given in the text of paragraph 230
# human CD47-ECD-Avi-His [5] = biological target: T6, human CD47-ECD-Avi-His; assay: SPR, CD47 amine-coupled, Fab analyte, 1:1 fit
# [6] = biological target: T1, cynomolgus CD47-ECD-Avi-His; assay: SPR, CD47 amine-coupled, Fab analyte, 1:1 fit
# Human FcyRI [7] = biological target: T7, Human FcyRI (human, UniProt P12314 16-288, limits assumed); assay: SPR, antibody on Protein G chip, 1:1 binding model
# T7 construct: also called FcγRIa
# [8] = biological target: T8, CD38 on cells (Daudi, Raji, KMS-12-PE, NCI-H929, KMS-12-BM) (human, UniProt P28907); assay: flow cytometry on Daudi cells (carry CD38 and CD47), anti-human IgG-Fc PE, GeoMFI; apparent whole-cell value, the anti-CD47 arm also binds
# T8 construct: full-length, cell surface; These cells also carry CD47
# [9] = biological target: T8, CD38 on cells (Daudi, Raji, KMS-12-PE, …); assay: flow cytometry on Raji cells (carry CD38 and CD47), anti-human IgG-Fc PE, GeoMFI; apparent whole-cell value, the anti-CD47 arm also binds
# [10] = biological target: T9, CD47 on cells (Daudi cells; human red blood cells) (human, UniProt Q08722 19-323); assay: blocking of SIRPα-mIgG1 Fc binding to CD47 on Daudi cells, image-based readout with anti-mouse IgG Fc Alexa Fluor 647, % inhibition; the sheet calls the half-maximal value EC50
# T9 construct: whole, on cells; These cells also carry CD38
# [11] = biological target: T8, CD38 on cells (Daudi, Raji, KMS-12-PE, …); assay: flow cytometry on KMS-12-PE cells (carry CD38 and CD47), anti-human IgG-Fc PE, GeoMFI; apparent whole-cell value, the anti-CD47 arm also binds
# [12] = biological target: T8, CD38 on cells (Daudi, Raji, KMS-12-PE, …); assay: flow cytometry on KMS-12-BM cells (carry CD38 and CD47), anti-human IgG-Fc PE, GeoMFI; apparent whole-cell value, the anti-CD47 arm also binds
# [13] = biological target: T8, CD38 on cells (Daudi, Raji, KMS-12-PE, …); assay: flow cytometry on NCI-H929 cells (carry CD38 and CD47), anti-human IgG-Fc PE, GeoMFI; apparent whole-cell value, the anti-CD47 arm also binds
# Human FcRn = biological target: T10, Human FcRn (human, UniProt P55899 24-297, limits assumed); assay: SPR, antibody on Protein L chip, steady state, pH 6.0
# T10 construct: Measured at pH 6.0; also called human FcRn receptor
# Human FcyRIIA [14] = biological target: T2, Human FcyRIIA; assay: SPR; reference trastuzumab
# Human FcyRI [15] = biological target: T7, Human FcyRI; assay: SPR; reference trastuzumab
# Human FcyRIIIA [16] = biological target: T11, Human FcyRIIIA (human, UniProt P08637 17-193, limits assumed); assay: SPR; reference trastuzumab
# T11 construct: also called FcγRIIIa
# Human FcyRIIB [17] = biological target: T3, Human FcyRIIB; assay: SPR; reference trastuzumab
# Human FcyRIIA [18] = biological target: T2, Human FcyRIIA; assay: SPR, antibody on Protein G chip, steady state
# Human FcyRIIIA [19] = biological target: T11, Human FcyRIIIA; assay: SPR, antibody on Protein G chip, steady state
# Human FcyRIIB [20] = biological target: T3, Human FcyRIIB; assay: SPR, antibody on Protein G chip, steady state
# [21] = biological target: T12, human FcRn-ECD-Avi-His / B2M complex (human, UniProt P61769 21-119); assay: SPR steady state, antibody captured with Human Fab Capture kit, FcRn analyte; reference trastuzumab control IgG1
# T12 construct: B2M was cloned full length with its native leader; The alternative SPR method for BEAT CD38/CD47-60 says only 'FcRn' as analyte; the tie to the in-house complex is inferred; also called human FcRn/B2M complex
binder,measurement,setting,value
B1,binding result,[1],no binding (tested: 2000 nM)
same,Kd,[2],666 nM
B2,Kd,human CD47-ECD-Avi-His [3],104 nM
same,Kd,[4],142 nM
same,Kd,human CD47-ECD-Avi-His [5],878 nM
same,Kd,[6],939 nM
B3,Kd,Human FcyRI [7],0.07 nM
same,EC50 (read off the curve),[8],~4 nM
same,EC50 (read off the curve),[9],~4 nM
same,IC50 (read off the curve),[10],~0.03 nM
same,EC50 (read off the curve),[11],~3 nM
same,EC50 (read off the curve),[12],~30 nM
same,EC50 (read off the curve),[13],~8 nM
same,Kd,Human FcRn,418 nM
same,fold enhancement BEAT CD38/47-60 over trastuzumab,Human FcyRIIA [14],4.4 fold
same,fold enhancement BEAT CD38/47-60 over trastuzumab,Human FcyRI [15],2.6 fold
same,fold enhancement BEAT CD38/47-60 over trastuzumab,Human FcyRIIIA [16],5.6 fold
same,fold enhancement BEAT CD38/47-60 over trastuzumab,Human FcyRIIB [17],6.7 fold
same,Kd,Human FcyRIIA [18],110 nM
same,Kd,Human FcyRIIIA [19],15.1 nM
same,Kd,Human FcyRIIB [20],306 nM
same,KD ratio [BEAT/Control IgG1],[21],0.5 ratio
